Source: patent US20230242902A1, “A HIGHLY ERROR-PRONE […] R[…] FOR TARGETED CONTINUOUS EVOLUTION IN VIVO” (The Regents of the University of California, priority 2017, published 2023)
Numbering of substitutions follows the chain as printed. Names may count otherwise.

B1: F616E: TP-DNAP1 variant (protein)
chain: MDYKDKALNDLRNVYADFDSLPLDFRQILIKDRATLLQKEDVEKKILERQEDAKKYAEYLKQSEIPERISLPNIKRHKGVSISFEETSEDMVLEPRPFIFDGLNIRCFRRETIFSLKNKILNMVKESSSFKNVSRQSVSFMYFKIFNKGKVIASTKSVNIYEDKIDERLEDLCNNFDDVLKKIIDVTYGYESLFVSETYSYVIFYAKSIYFPQPRCVNNWGNNIPNILTFDSFKLFTANKNNVSCIKQCSRFLWQKDFNTLEEMIEYKNGNICIVTPQLHINDVRDIKSFNDIRLYSESPIKTFSVIDNTITYLFYFKEHLGVIFNITKSRHDRRVTKFSPLSKFSDVKNITVCFDIESYFDPEKESNQVNIPFICCASIIYNKVIGNIVDFEGRDCVAQMIEYVVDICGELNISSVELIAHNGGGYDFHYILSSMYNPAAIKNILIRNNSFISFNFAHDGVKFSVKDSYSFLLCSLANASKAFLNEETFKKTDFPHHDLKTADDLYKVYKEWSSVNTEINHVVEKEKLLITSEHIVNFTKNDKSKTLIEWSKDYCRNDVLVLSKVWLEFKNAVEDIFNCELVDQTMTLAGLSYKLFQANMPFDVELRHPNKEDYENMREALIGGRCISVNGIYKDVLCLDVKSLYPASMAFYDQPYGSFKRVSSRPKDELGIYYVRVTPNRNNKSNFFPIRSHNKITYNNFEESTYIAWYTNVDIDIGLSEGHNIEYIPFDSYGNIGYSWSKKGKIFEKYIKDVLYKLKIKYEKQNNKVKRNVIKIIMNSLWGKFAQKWVNFEYFIKSEDDIDFESEEAYKIWDTDFMLIKKIKESTYSSKPIQNGVFTLSWARYHMKSIWDAGAKEGAECIYSDTDSIFVHKEHFKKNAKFMLNGLKVPIIGSEVGQLELECEFDKLLCAGKKQYMGFYTYFQDGKPCIKEKKRFKGIPSNYIIPELYAHLLSGADKEAKIQFLKFRREWGSVKGYIENKTVKAT
B2: T679E: TP-DNAP1 variant (protein)
chain: B1 chain with E616F, T679E
B3: N683T: TP-DNAP1 variant (protein)
chain: B1 chain with E616F, N683T
B4: T679Q: TP-DNAP1 variant (protein)
chain: B1 chain with E616F, T679Q
B5: T679R: TP-DNAP1 variant (protein)
chain: B1 chain with E616F, T679R
B6: N681Q, R692I: TP-DNAP1 variant (protein)
chain: B1 chain with E616F, N681Q, R692I
B7: Y296K: TP-DNAP1 variant (protein)
chain: B1 chain with Y296K, E616F
B8: Y675L: TP-DNAP1 variant (protein)
chain: B1 chain with E616F, Y675L
B9: D669G, T698M: TP-DNAP1 variant (protein)
chain: B1 chain with E616F, D669G, T698M
B10: N681F: TP-DNAP1 variant (protein)
chain: B1 chain with E616F, N681F
B11: Y675H: TP-DNAP1 variant (protein)
chain: B1 chain with E616F, Y675H
B12: E670M, S693G: TP-DNAP1 variant (protein)
chain: B1 chain with E616F, E670M, S693G
B13: N683H: TP-DNAP1 variant (protein)
chain: B1 chain with E616F, N683H
B14: N291W: TP-DNAP1 variant (protein)
chain: B1 chain with N291W, E616F
B15: E620R: TP-DNAP1 variant (protein)
chain: B1 chain with E616F, E620R
B16: R677M: TP-DNAP1 variant (protein)
chain: B1 chain with E616F, R677M
B17: L295Q: TP-DNAP1 variant (protein)
chain: B1 chain with L295Q, E616F
B18: R682P: TP-DNAP1 variant (protein)
chain: B1 chain with E616F, R682P
B19: R662A: TP-DNAP1 variant (protein)
chain: B1 chain with E616F, R662A
B20: R677L: TP-DNAP1 variant (protein)
chain: B1 chain with E616F, R677L
B21: I673V, E703D: TP-DNAP1 variant (protein)
chain: B1 chain with E616F, I673V, E703D
B22: R682D: TP-DNAP1 variant (protein)
chain: B1 chain with E616F, R682D
B23: N683A: TP-DNAP1 variant (protein)
chain: B1 chain with E616F, N683A
B24: T679A: TP-DNAP1 variant (protein)
chain: B1 chain with E616F, T679A
B25: R677Q: TP-DNAP1 variant (protein)
chain: B1 chain with E616F, R677Q
B26: R677S: TP-DNAP1 variant (protein)
chain: B1 chain with E616F, R677S
B27: R662C: TP-DNAP1 variant (protein)
chain: B1 chain with E616F, R662C

test system: p1; assay: p1 copy number by p1-encoded mKate2 fluorescence; format: cell-based, S. cerevisiae; details: OR-Y24, measured in triplicate
Protocol: A calibration curve was established to correlate p1 copy number, determined via quantitative PCR (qPCR), with fluorescence of p1-encoded mKate2 (Table 1). Five TP-DNAP1 variants representing a wide range of copy numbers were transformed into ORY24 and passaged until w.t. p1 was displaced. The five OR-Y24 strains were grown to saturation, diluted 1:10,000 to mimic p1 fluctuation tests, and grown in triplicate 100 μL cultures and duplicate 40 mL cultures. 100 μL saturated cultures were subject to fluorescence measurement of mKate2 (ex/em=561 nm/620 nm, bandwidth=15 nm) on a flow cytometer (Invitrogen Attune NxT). Whole-cell DNA extracts were prepared from 40 mL cultures and used as templates for qPCR measurement of p1-encoded leu2 (Q180*), as described previously (Ravikumar et al., 2014). p1-encoded LEU2 was PCR amplified with qPCR-Leu2F and qPCR Leu2R; and genomic LEU3 was PCR amplified with qPCR-Leu3F and qPCR-Leu3R using SyBR Green (Fisher Scientific) master mix.
To assay p1 copy number for large-scale p1 fluctuation tests, additional replicates of OR-Y24 strains were grown from the 1:10,000 dilution in triplicate and saturated cultures were subject to fluorescence measurement via flow cytometry. Fluorescence measurements were converted to copy number with the linear calibration curve.
To assay relative p1 copy number for small-scale p1 fluctuation tests, an additional 200 μL culture of OR-Y24 strains were grown from the 1:10,000 dilution. 200 μL saturated cultures were subject to an OD600 measurement and fluorescence measurement of mKate2 (ex/em=588 nm/633 nm), using a microplate reader (TECAN Infinite M200 PRO). A linear relationship was assumed between p1 copy number and OD600-normalized mKate2 fluorescence. Copy numbers were calculated from normalization to a w.t. TP-DNAP1 control.
For a few large-scale p1 fluctuation tests, p1 copy number was assayed by the method of small scale p1 fluctuation tests (i.e. microplate reader measurement). For these experiments, mutant TP-DNAP1 p1 copy numbers were calculated by normalization to a w.t. TP-DNAP1 control. The copy number of this control was assumed to be the average w.t. TP-DNAP1 copy number from all large-scale p1 fluctuation tests that used flow cytometry measurements.
TP-DNAP1 plasmids were isolated from these strains and subject to Sanger sequencing. 210 unique variants were identified and the corresponding plasmids were re-transformed into OR-Y24. Transformed strains were passaged in SC-UH until w.t. p1 was displaced, and subject to p1 copy number measurement in triplicate. Four high copy variants were directly subject to qPCR measurements for validation. To test the suppressor activity of the G410H mutation, which yields increased p1 copy number, this amino acid change was added to several low-activity TP-DNAP1 variants. p1 copy number was similarly assayed for these strains.

Molecule	Mean fold-increase over w.t. (p1 copy number) [fold]
B1	2.2
B2	1.7
B3	1.57
B4	1.71
B5	1.73
B6	1.74
B7	2.28
B8	1.96
B9	1.65
B10	1.75
B11	2.14
B12	1.55
B13	1.68
B14	2.26
B15	2.29
B16	1.97
B17	2.48
B18	1.75
B19	1.75
B20	1.68
B21	1.88
B22	1.74
B23	1.93
B24	1.82
B25	1.84
B26	1.87
B27	1.7
